Patent publication US20240270821A1, “GIP/GLP1/GCG TRI-RECEPTOR AGONISTS AND USES THEREOF” (priority 2023, published 2024)
Starred links: 1 amine or outer side, 2 acyl side, 3 side chain; linkers in the order of their positions; H or OH if unused. Non-standard residues stand in square brackets, D forms with d. Groups on a side chain read outwards from the residue. No end group written: not given here. *: point of attachment. C18 diacid = O=C(O)CCCCCCCCCCCCCCCCC(=O)*; γGlu = O=C(O)[C@H](CCC(=O)[*:2])N[*:1]; 4Pal = N[C@@H](Cc1ccncc1)C(=O)O; αMeL = CC(C)C[C@](C)(N)C(=O)O; Dab = NCC[C@H](N)C(=O)O; AEEA = NCCOCCOCC(=O)O; Aib = CC(C)(N)C(=O)O

T1: human GIP receptor (human) (UniProt P48546)
T1 sequence (looked up): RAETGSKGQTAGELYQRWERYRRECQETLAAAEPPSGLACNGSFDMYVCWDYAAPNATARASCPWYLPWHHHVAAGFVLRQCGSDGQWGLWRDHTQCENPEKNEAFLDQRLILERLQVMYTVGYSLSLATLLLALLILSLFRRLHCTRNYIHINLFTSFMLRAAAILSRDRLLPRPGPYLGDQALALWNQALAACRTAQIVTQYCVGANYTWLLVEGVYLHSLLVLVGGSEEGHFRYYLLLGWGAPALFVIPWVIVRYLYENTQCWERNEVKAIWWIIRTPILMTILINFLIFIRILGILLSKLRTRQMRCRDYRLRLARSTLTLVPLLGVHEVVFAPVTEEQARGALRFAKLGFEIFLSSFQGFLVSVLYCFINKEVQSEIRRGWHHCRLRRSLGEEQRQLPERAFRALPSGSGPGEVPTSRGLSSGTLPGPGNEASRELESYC


Columns and labels:
Experiment in all cases: cell-based or functional assay
hGLP-1R = hGLP-1R (Homo sapiens, UniProt P43220)
hGLP-1R, sequence (P43220 24-463): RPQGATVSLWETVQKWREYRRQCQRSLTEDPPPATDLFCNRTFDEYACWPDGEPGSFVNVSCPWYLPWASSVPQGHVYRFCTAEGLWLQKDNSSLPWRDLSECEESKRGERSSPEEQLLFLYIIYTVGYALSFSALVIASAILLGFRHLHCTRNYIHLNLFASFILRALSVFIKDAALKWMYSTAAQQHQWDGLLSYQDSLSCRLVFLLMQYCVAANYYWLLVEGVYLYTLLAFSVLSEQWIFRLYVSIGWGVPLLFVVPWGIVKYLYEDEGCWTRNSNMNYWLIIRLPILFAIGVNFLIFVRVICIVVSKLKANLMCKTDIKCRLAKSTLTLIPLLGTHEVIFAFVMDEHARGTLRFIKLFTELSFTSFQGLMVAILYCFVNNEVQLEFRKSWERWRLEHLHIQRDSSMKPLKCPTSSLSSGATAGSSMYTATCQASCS

[1] = target: T1, human GIP receptor (human)
[2] = target: human glucagon receptor (human) (UniProt P47871)
human glucagon receptor (human), sequence (P47871 26-477): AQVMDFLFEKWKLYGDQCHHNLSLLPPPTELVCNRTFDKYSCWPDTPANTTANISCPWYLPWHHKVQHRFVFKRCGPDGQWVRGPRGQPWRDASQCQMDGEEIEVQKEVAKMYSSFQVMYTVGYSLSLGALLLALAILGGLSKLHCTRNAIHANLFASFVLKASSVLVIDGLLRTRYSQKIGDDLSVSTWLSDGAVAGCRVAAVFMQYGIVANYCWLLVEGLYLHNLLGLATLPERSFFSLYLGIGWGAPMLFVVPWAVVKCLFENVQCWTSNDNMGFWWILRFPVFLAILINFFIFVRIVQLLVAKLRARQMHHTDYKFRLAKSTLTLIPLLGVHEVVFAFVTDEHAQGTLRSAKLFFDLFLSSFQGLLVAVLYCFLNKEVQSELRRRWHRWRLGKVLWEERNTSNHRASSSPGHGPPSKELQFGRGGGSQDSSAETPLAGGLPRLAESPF

Binder | Relative cAMP EC50 (hGLP-1R) | Relative cAMP EC50 [1] | Relative cAMP EC50 [2]
YXQGTFTSDXSRXLDKKAQXAFIEYLIEXSPSSGAPPPSGS (synthetic construct; SITE 2: note = 2-Aminoisobutyric Acid; SITE 10: note = 3-(4-Pyridyl)-L-alanine; SITE 13: note = alpha-methyl-leucine; SITE 17: note = Lysine is chemically modified through conjugation of the epsilon-amino group of the Lysine side chain with (2-[2-(2-Amino-ethoxy)-ethoxy]-acetyl)) [Example 807] | 1.72 nM | 0.108 nM | 12.4 nM
YXQGTXTSDXSILLDKKAQXAFIEYLEEGGPSSGAPPPEGTGE (synthetic construct; SITE 2: note = 2-Aminoisobutyric Acid; SITE 6: note = alpha-methyl-2-fluoro-L-phenylalanine; SITE 10: note = 3-(4-Pyridyl)-L-alanine; SITE 17: note = Lysine is chemically modified through conjugation of the epsilon-amino group of the Lysine side chain with (gamma-Glu)2-CO-(CH2)1) [Example 660 (SEQ ID NO: 666)] | 1.27 nM | 0.0646 nM | 7.38 nM
YXQGTXTSDXSILLDKKAQXAFIEYLXEGGPSSGAPPPSGTGE (synthetic construct; SITE 2: note = 2-Aminoisobutyric Acid; SITE 6: note = alpha-methyl-2-fluoro-L-phenylalanine; SITE 10: note = 3-(4-Pyridyl)-L-alanine; SITE 17: note = Lysine is chemically modified through conjugation of the epsilon-amino group of the Lysine side chain with (gamma-Glu)2-CO-(CH2)1) [Example 661 (SEQ ID NO: 667)] | 1.13 nM | 0.0665 nM | 1.78 nM
YXQGTXTSDXSILLDKKAQXAFIEXLEEGGPSSGAPPPSGTGE (synthetic construct; SITE 2: note = 2-Aminoisobutyric Acid; SITE 6: note = alpha-methyl-2-fluoro-L-phenylalanine; SITE 10: note = 3-(4-Pyridyl)-L-alanine; SITE 17: note = Lysine is chemically modified through conjugation of the epsilon-amino group of the Lysine side chain with (2-[2-(2-Amino-ethoxy))) [Example 669 (SEQ ID NO: 675)] | 0.27 nM | 0.0145 nM | 1.76 nM
YXQGTXTSDXSILLDKKAQXAFIEXLEEGGPSSGAPPPSGGGE (synthetic construct; SITE 2: note = 2-Aminoisobutyric Acid; SITE 6: note = alpha-methyl-2-fluoro-L-phenylalanine; SITE 10: note = 3-(4-Pyridyl)-L-alanine; SITE 17: note = Lysine is chemically modified through conjugation of the epsilon-amino group of the Lysine side chain with (gamma-Glu)2-CO-(CH2)1) [Example 668 (SEQ ID NO: 674)] | 0.325 nM | 0.0198 nM | 2.03 nM
YXQGTXTSDXSILLDKKAQXAFIEYLXEGGPSSGAPPPSGTGE (synthetic construct; SITE 2: note = 2-Aminoisobutyric Acid; SITE 6: note = alpha-methyl-2-fluoro-L-phenylalanine; SITE 10: note = 3-(4-Pyridyl)-L-alanine; SITE 17: note = Lysine is chemically modified through conjugation of the epsilon-amino group of the Lysine side chain with (2-[2-(2-Amino-ethoxy))) [Example 663 (SEQ ID NO: 669)] | 1.29 nM | 0.0893 nM | 1.95 nM
YXQGTXTSDXSILLDKKAQXAFIEXLEEGGPSSGAPPPSGTGE (synthetic construct; SITE 2: note = 2-Aminoisobutyric Acid; SITE 6: note = alpha-methyl-2-fluoro-L-phenylalanine; SITE 10: note = 3-(4-Pyridyl)-L-alanine; SITE 17: note = Lysine is chemically modified through conjugation of the epsilon-amino group of the Lysine side chain with (gamma-Glu)2-CO-(CH2)1) [Example 664 (SEQ ID NO: 670)] | 0.356 nM | 0.0159 nM | 2.12 nM
YXQGTXTSDXSILLDKKAQXAFIEYLEEGGPSSGAPPPSGTGE (synthetic construct; SITE 2: note = 2-Aminoisobutyric Acid; SITE 6: note = alpha-methyl-2-fluoro-L-phenylalanine; SITE 10: note = 3-(4-Pyridyl)-L-alanine; SITE 17: note = Lysine is chemically modified through conjugation of the epsilon-amino group of the Lysine side chain with (2-[2-(2-Amino-ethoxy))) [Example 662 (SEQ ID NO: 668)] | 0.946 nM | 0.0704 nM | 4.81 nM
YXQGTXTSDXSILLDXKAQXAFIEXLEEGGPSSGAPPPSGTGE (synthetic construct; SITE 2: note = 2-Aminoisobutyric Acid; SITE 6: note = alpha-methyl-2-fluoro-L-phenylalanine; SITE 10: note = 3-(4-Pyridyl)-L-alanine; SITE 16: note = L-ornithine; SITE 17: note = Lysine is chemically modified through conjugation of the epsilon-amino group of the Lysine side chai) [Example 665 (SEQ ID NO: 671)] | 0.284 nM | 0.0223 nM | 2.94 nM
YXQGTXTSDXSILLDKKAQXAFIEXLEEGGPSSGAPPPSGSGE (synthetic construct; SITE 2: note = 2-Aminoisobutyric Acid; SITE 6: note = alpha-methyl-2-fluoro-L-phenylalanine; SITE 10: note = 3-(4-Pyridyl)-L-alanine; SITE 17: note = Lysine is chemically modified through conjugation of the epsilon-amino group of the Lysine side chain with (gamma-Glu)2-CO-(CH2)1) [Example 666 (SEQ ID NO: 672)] | 0.337 nM | 0.0203 nM | 2 nM
YXQGTXTSDXSILLDXKAQXXFIEXLEEGGPSSGAPPPSGTGE (synthetic construct; SITE 2: note = 2-Aminoisobutyric Acid; SITE 6: note = alpha-methyl-2-fluoro-L-phenylalanine; SITE 10: note = 3-(4-Pyridyl)-L-alanine; SITE 16: note = L-ornithine; SITE 17: note = Lysine is chemically modified through conjugation of the epsilon-amino group of the Lysine side chai) [Example 674 (SEQ ID NO: 680)] | 0.21 nM | 0.0264 nM | 2.09 nM
YXQGTXTSDXSILLDKKAQXAFIEXLEEGGPSSGAPPPSGEGE (synthetic construct; SITE 2: note = 2-Aminoisobutyric Acid; SITE 6: note = alpha-methyl-2-fluoro-L-phenylalanine; SITE 10: note = 3-(4-Pyridyl)-L-alanine; SITE 17: note = Lysine is chemically modified through conjugation of the epsilon-amino group of the Lysine side chain with (gamma-Glu)2-CO-(CH2)1) [Example 667 (SEQ ID NO: 673)] | 0.42 nM | 0.0217 nM | 2.34 nM
Y[Aib]QGTFTSD[4Pal]S[Dab][αMeL]LDKK([AEEA-γGlu-C18 diacid])AQ[Aib]AFIEYLIE[Aib]GPSSGAPPPSGS-NH2 [Example 803] | 2.02 nM | 0.232 nM | 9.75 nM
YXQGTXTSDXSIXLDKKAQXXFIEYLSEGGPSSGEPPPEGSEE (synthetic construct; SITE 2: note = 2-Aminoisobutyric Acid; SITE 6: note = alpha-methyl-2-fluoro-L-phenylalanine; SITE 10: note = 3-(4-Pyridyl)-L-alanine; SITE 13: note = alpha-methyl-leucine; SITE 17: note = Lysine is chemically modified through conjugation of the epsilon-amino group of the Lysine) [Example 651 (SEQ ID NO: 657)] | 1.02 nM | 0.112 nM | 10.7 nM
YXQGTXTSDXSIXLDKKAQXXFIEYLQEGGPSSGEPPPEGSEE (synthetic construct; SITE 2: note = 2-Aminoisobutyric Acid; SITE 6: note = alpha-methyl-2-fluoro-L-phenylalanine; SITE 10: note = 3-(4-Pyridyl)-L-alanine; SITE 13: note = alpha-methyl-leucine; SITE 17: note = Lysine is chemically modified through conjugation of the epsilon-amino group of the Lysine) [Example 653 (SEQ ID NO: 659)] | 0.426 nM | 0.0303 nM | 7.29 nM
YXQGTXTSDXSIXLDKKAQXXFIEYLTEGGPSSGEPPPEGSEE (synthetic construct; SITE 2: note = 2-Aminoisobutyric Acid; SITE 6: note = alpha-methyl-2-fluoro-L-phenylalanine; SITE 10: note = 3-(4-Pyridyl)-L-alanine; SITE 13: note = alpha-methyl-leucine; SITE 17: note = Lysine is chemically modified through conjugation of the epsilon-amino group of the Lysine) [Example 652 (SEQ ID NO: 658)] | 0.426 nM | 0.0342 nM | 15.3 nM
YXQGTXTSDXXIXLDXKAAXEFIEXLLEGGPSSGAPPPSGS (synthetic construct; SITE 2: note = 2-Aminoisobutyric Acid; SITE 6: note = alpha-methyl-2-fluoro-L-phenylalanine; SITE 10: note = 3-(4-Pyridyl)-L-alanine; SITE 11: note = alpha-methyl-L-serine; SITE 13: note = alpha-methyl-leucine; SITE 16: note = L-ornithine; SITE 17: note = Lysine is chemically mo) [Example 672 (SEQ ID NO: 678)] | 0.389 nM | 0.014 nM | 1.19 nM
YXQGTXTSDXXIXLDXKAAXEFIEXLVEGGPSSGAPPPSGS (synthetic construct; SITE 2: note = 2-Aminoisobutyric Acid; SITE 6: note = alpha-methyl-2-fluoro-L-phenylalanine; SITE 10: note = 3-(4-Pyridyl)-L-alanine; SITE 11: note = alpha-methyl-L-serine; SITE 13: note = alpha-methyl-leucine; SITE 16: note = L-ornithine; SITE 17: note = Lysine is chemically mo) [Example 693 (SEQ ID NO: 699)] | 0.161 nM | 0.0104 nM | 2.39 nM
YXQGTXTSDXXIXLDXKAAXEFIEXLVEGGPSSGEPPPSGS (synthetic construct; SITE 2: note = 2-Aminoisobutyric Acid; SITE 6: note = alpha-methyl-2-fluoro-L-phenylalanine; SITE 10: note = 3-(4-Pyridyl)-L-alanine; SITE 11: note = alpha-methyl-L-serine; SITE 13: note = alpha-methyl-leucine; SITE 16: note = L-ornithine; SITE 17: note = Lysine is chemically mo) [Example 695 (SEQ ID NO: 701)] | 0.254 nM | 0.0136 nM | 1.93 nM
